The values below come from paper PMC10163027, “Coordinated regulation of vegetative phase change by brassinosteroids and the age pathway in Arabidopsis” (Nature Communications, 2023).

B1: 6×His-SPL9 (natural protein, Arabidopsis, UniProt Q700W2 1-375, looked up)
chain: MEMGSNSGPGHGPGQAESGGSSTESSSFSGGLMFGQKIYFEDGGGGSGSSSSGGRSNRRVRGGGSGQSGQIPRCQVEGCGMDLTNAKGYYSRHRVCGVHSKTPKVTVAGIEQRFCQQCSRFHQLPEFDLEKRSCRRRLAGHNERRRKPQPASLSVLASRYGRIAPSLYENGDAGMNGSFLGNQEIGWPSSRTLDTRVMRRPVSSPSWQINPMNVFSQGSVGGGGTSFSSPEIMDTKLESYKGIGDSNCALSLLSNPHQPHDNNNNNNNNNNNNNNTWRASSGFGPMTVTMAQPPPAPSQHQYLNPPWVFKDNDNDMSPVLNLGRYTEPDNCQISSGTAMGEFELSDHHHQSRRQYMEDENTRAYDSSSHHTNWSL
notes: SPL9 of Arabidopsis; the SPL9 ORF was cloned into pET-30a (+); Printed both as 6×His-SPL9 and SPL9-His; pET-30a(+) may add further vector residues (surmised); also called SPL9-His; SPL9-HIS; source: E. coli Rosetta (DE3), purified (Ni-NTA)
B2: GST-BIN2 (enzyme, Arabidopsis, UniProt Q39011 1-380, looked up)
chain: MADDKEMPAAVVDGHDQVTGHIISTTIGGKNGEPKQTISYMAERVVGTGSFGIVFQAKCLETGETVAIKKVLQDRRYKNRELQLMRVMDHPNVVCLKHCFFSTTSKDELFLNLVMEYVPESLYRVLKHYSSANQRMPLVYVKLYMYQIFRGLAYIHNVAGVCHRDLKPQNLLVDPLTHQVKICDFGSAKQLVKGEANISYICSRFYRAPELIFGATEYTTSIDIWSAGCVLAELLLGQPLFPGENAVDQLVEIIKVLGTPTREEIRCMNPHYTDFRFPQIKAHPWHKIFHKRMPPEAIDFASRLLQYSPSLRCTALEACAHPFFDELREPNARLPNGRPFPPLFNFKQEVAGSSPELVNKLIPDHIKRQLGLSFLNQSGT
notes: BIN2, GSK3-like kinase of Arabidopsis; the BIN2 ORF was cloned into pPGH (derived from pGEX4T-2); Printed both as GST-BIN2 and BIN2-GST; a vector derived from pGEX4T-2 would put GST at the N-terminus (surmised); also called BIN2-GST; pPGH-BIN2; source: E. coli Rosetta (DE3), purified (GST resin)

In assay [1] the target is B2. The assay is described as follows: pull-down; purified His-tagged protein incubated with resin bound with GST or GST-BIN2 at 4 °C for 4 h; washed five times with PBS-EW; blots with anti-His and anti-GST. The conditions noted are these: both partners purified.
In assay [2] the target is T1, 6×His-TOE1 (Arabidopsis, UniProt Q9SK03 1-449).
T1 construct: TOE1 (AP2-like protein) of Arabidopsis; the TOE1 ORF was cloned into pET-30a (+); Printed both as 6×His-TOE1 and TOE1-His; pET-30a(+) may add further vector residues (surmised); also called TOE1-His; TOE1-HIS; source: E. coli Rosetta (DE3), purified (Ni-NTA)
T1 sequence (Q9SK03 whole entry): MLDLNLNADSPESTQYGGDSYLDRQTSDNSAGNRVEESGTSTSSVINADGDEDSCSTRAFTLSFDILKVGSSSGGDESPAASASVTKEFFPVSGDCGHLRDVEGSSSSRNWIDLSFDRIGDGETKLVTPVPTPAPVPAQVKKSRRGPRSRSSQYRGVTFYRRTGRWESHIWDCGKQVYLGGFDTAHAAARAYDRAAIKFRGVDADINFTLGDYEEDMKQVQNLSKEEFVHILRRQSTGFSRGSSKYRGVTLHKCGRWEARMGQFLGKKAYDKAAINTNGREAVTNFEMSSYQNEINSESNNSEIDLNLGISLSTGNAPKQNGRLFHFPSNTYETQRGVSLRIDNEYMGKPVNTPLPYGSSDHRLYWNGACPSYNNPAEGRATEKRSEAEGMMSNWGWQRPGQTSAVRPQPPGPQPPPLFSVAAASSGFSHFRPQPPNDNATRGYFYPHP
The description is as above. The conditions noted are these: both partners purified.

On to B1, for which the binding result in assay [1] is recorded as “binds”.

For the molecule B2, the binding result in assay [2] was “binds”.
